Paper PMC3062689 (Biochemistry, 2011)
Where two headings read alike, the source gives them in different places. Blank lines part the entries; values can stand above or below the molecule they belong to.

What was measured:
Assay in all cases: SEC-MALS
[1] = molecular target: Mouse arrestin-1-(F86A,F198A) (mouse) (UniProt P20443)
[2] = molecular target: Mouse arrestin-1-(F86A,F198A, A349V) (mouse) (UniProt P20443)
SEC-MALS [3] = molecular target: the molecule itself
SEC-MALS [4] = molecular target: the molecule itself; remark: listed apart in the source
SEC-MALS [5] = molecular target: the molecule itself; remark: listed apart in the source
SEC-MALS [6] = molecular target: the molecule itself; remark: listed apart in the source

Kd [1]: 537 µM | log Kdim (association constant) [1]: 3.27 | stoichiometry N [1]: 2
Molecule: Mouse arrestin-1-(F86A,F198A) (from UniProt P20443 1-403) (natural protein)

Kd [2]: 724 µM | log Kdim (association constant) [2]: 3.14 | stoichiometry N [2]: 2
Molecule: Mouse arrestin-1-(F86A,F198A, A349V) (from UniProt P20443 1-403) (natural protein)

B1: wild type mouse arrestin-1 (natural protein, UniProt P20443 1-403, looked up)
chain: MAACGKTNKSHVIFKKVSRDKSVTIYLGKRDYVDHVSQVEPVDGVVLVDPELVKGKKVYVTLTCAFRYGQEDIDVMGLTFRRDLYFSRVQVYPPVGAMSVLTQLQESLLKKLGDNTYPFLLTFPDYLPCSVMLQPAPQDVGKSCGVDFEVKAFASDITDPEEDKIPKKSSVRLLIRKVQHAPPEMGPQPSAEASWQFFMSDKPLNLSVSLSKEIYFHGEPIPVTVTVTNNTDKVVKKIKVSVEQIANVVLYSSDYYVKPVASEETQEKVQPNSTLTKTLVLVPLLANNRERRGIALDGKIKHEDTNLASSTIIKEGIDRTVMGILVSYHIKVKLTVSGFLGELTSSEVATEVPFRLMHPQPEDPAKESVQDENLVFEEFARQNLKDTGENTEGKKDEDAGQDE
stoichiometry N (SEC-MALS [3]): 2 | stoichiometry N (SEC-MALS [4]): 4 | Kd (SEC-MALS [5]): 57.5 µM | Kd (SEC-MALS [6]): 63.1 µM

B2: wild type human arrestin-1 (natural protein, UniProt P10523 1-405, looked up)
chain: MAASGKTSKSEPNHVIFKKISRDKSVTIYLGNRDYIDHVSQVQPVDGVVLVDPDLVKGKKVYVTLTCAFRYGQEDIDVIGLTFRRDLYFSRVQVYPPVGAASTPTKLQESLLKKLGSNTYPFLLTFPDYLPCSVMLQPAPQDSGKSCGVDFEVKAFATDSTDAEEDKIPKKSSVRLLIRKVQHAPLEMGPQPRAEAAWQFFMSDKPLHLAVSLNKEIYFHGEPIPVTVTVTNNTEKTVKKIKAFVEQVANVVLYSSDYYVKPVAMEEAQEKVPPNSTLTKTLTLLPLLANNRERRGIALDGKIKHEDTNLASSTIIKEGIDRTVLGILVSYQIKVKLTVSGFLGELTSSEVATEVPFRLMHPQPEDPAKESYQDANLVFEEFARHNLKDAGEAEEGKRDKNDVDE
Kd (SEC-MALS [5]): 2.95 µM | Kd (SEC-MALS [6]): 224 µM
